Measurements: patent publication US20210277109A1 (SYSTIMMUNE, published 2021)

B1: 330F11 (antibody, V domains shown)
VH: QSVEESGGRLVTPGTPLTLTCTVSGFSLNNYWMSWVRQAPGEGLEWIGTISSGAYTWFATWATGRFTISKTSTTVDLSITSPTTEDTATYFCARYSSTTDWTYFNIWGPGTLVTVSS
VL: DVVMTQTPASVEAAVGGTVTIKCQASQSINNYLAWYQQKPGQPPKLLIYRASTLESGVPSRFKGSGSGTQFTLTISDLECADAATYYCQSYNGVGRTAFGGGTEVEFK
notes: chimeric counterpart m9; also called rabbit IgG of BCC well 330F11
B2: 338H4 (antibody, V domains shown)
VH: QSVEESGGRLVTPGTPLTLTCTVSGFSLSSYAMSWVRQAPGRGLEWIGIIYASGSTYYASWAKGRFTISKTSTTVDLKITSPTTEDTATYFCARIYDGMDLWGPGTLVTVSS
VL: DIVMTQTPASVSAAVGGTVTINCQASQNIYSYLSWYQQKPGQPPKRLIYLASTLASGVPSRFKSSGSGTEYTLTISDLECDDAATYYCQSNYNGNYGFGGGTEVEVK
notes: chimeric counterpart m8; also called rabbit IgG of BCC well 338H4
B3: 323H7 (antibody, V domains shown)
VH: QEQLKESGGGLVTPGGTLTLTCTASGFTISRYHMTWVRQAPGKGLEWIGHIYVNNDDTDYASWAKGRFTISKTSTTVDLKITSPTTEDTATYFCARLDVGGGGAYIGDIWGQGTLVTVSS
VL: QAVVTQTPSSVSAAVGGTVTISCQSSQSVYNNNDLAWYQQKPGQPPKLLIYYASTLASGVSSRFKGSGSGTQFTLAISDLECDDSATYYCAGGYDTDGLDTFAFGGGTEVEVK
notes: chimeric counterpart m3; also called rabbit IgG of BCC well 323H7
B4: 324C7 (antibody, V domains shown)
VH: QSVEESGGRLVTPGTPLTLTCTVSGFSLSGAGVSWVRQAPGKGLEWIGYIDSGATTYYASWAKGRFTISKASTTVDLKIASPTTEDTATYFCARGYYGMDPWGQGTLVTVSS
VL: DIVMTQTPASVEVAVGGTVTIKCQASQNIGSDLAWYQQKPGQPPKLLIYTTSNLASGVPSRFKGSGSGTGFTLTISDLECADAASYCCQGGYFSGRNIYGNAFGGGTEVVVK
notes: chimeric counterpart m4; also called rabbit IgG of BCC well 324C7
B5: 324C6 (antibody, V domains shown)
VH: QSLEESGGRLVTPGTPLTLTCTASGFSLSRYYMTWVRQAPGKGLEWIGTIYTSGSTWYASWTKGRFTISKTSTTVDLKITSPTTEDTATYFCARSYYGGDKTGLGIWGPGTLVTVSS
VL: DVVMTQTPASVEAAVGGTVTIKCQASQSIDSWLSWYQQKPGQPPKLLIYQASTLASGVSSRFKGSGSGTEFTLTISDLECADAATYYCQCAYGVSGTSSYLYTFGGGTEVEVK
notes: chimeric counterpart m7; also called rabbit IgG of BCC well 324C6
B6: 338H4 chimeric rabbit/human IgG antibody (antibody, V domains shown)
VH: B2 VH
VL: DIVMTQTPASVSAAVGGTVTINCQASQNIYSYLSWYQQKPGQPPKRLIYLASTLASGVPSRFKSSGSGTEYTLTISDLECDDAATYYCQSNYNGNYGFGGGTEVEVKR
notes: Rabbit variable regions on human gamma-1 and human kappa constant domains
B7: 323D10 humanized antibody (antibody, human IgG1, kappa, V domains shown)
VH: EVQLVESGGGLVQPGGSLRLSCTASGFSLSRNAMNWVRQAPGKGLEYIGYISTSGTTFYANSVKGRFTISKDNTKNTVDLQMNSLRAEDTAVYYCARDYNYAMDIWGQGTLVTVSS
VL: AIDLTQSPSTLSASVGGTITINCQASESISSWLAWYQQKPGKAPKLLIYETSKLASGVPSRFSGSGSGTEFTLTISSLQPDDFATYYCQSYYRINNIGYDNAFGGGTKVEIKR
notes: Human gamma-1 and human kappa constant domains
B8: 324C6 humanized antibody (antibody, human IgG1, kappa, V domains shown)
VH: QSLVESGGGLVQPGGSLRLSCTASGFSLSRYYMTWVRQAPGKGLEWIGTIYTSGSTWYASWTKGRFTISKDNTKNTVDLQMNSLRAEDTAVYYCARSYYGGDKTGLGIWGQGTLVTVSS
VL: DIQMTQSPSTLSASVGDRVTITCQASQSIDSWLSWYQQKPGKAPKLLIYQASTLASGVPSRFSGSGSGTEFTLTISSLQPDDFATYYCQSAYGVSGTSSYLYTFGGGTKVEIKR
notes: as for B7
B9: 324E2 humanized antibody (antibody, human IgG1, kappa, V domains shown)
VH: QSVEESGGGLVQPGGSLRLSCTASGFSLSNNAITWVRQAPGKGLEYIGIISSSGTTYYASSAKGRFTISKDTSKNTVDLQMNSLRAEDTAVYYCAGAFSVWGQGTLVTVSS
VL: DIQMTQSPSSLSASVGDRVTITCQSSQSVNNNDLAWYQQKPGKAPKRLIYWASKLASGVPSRFSGSGSGTEFTLTISNLQPEDFATYYCAGGYSGNIYGFGGGTKVEIKR
notes: as for B7
B10: 338H4 humanized antibody (antibody, human IgG1, kappa, V domains shown)
VH: EVQLVESGGGLVQPGGSLRLSCTASGFSLSSYAMSWVRQAPGRGLEWIGIIYASGSTYYASSAKGRFTISKDNTKNTVDLQMNSLRAEDTAVYYCARIYDGMDLWGQGTLVTVSS
VL: DIQMTQSPSSLSASVGDRVTINCQASQNIYSYLSWYQQKPGKVPKRLIYLASTLASGVPSRFSGSGSGTDYTLTISSLQPEDVATYYCQSNYNGNYGFGGGTKVEIKR
notes: as for B7
B11: 323H7 humanized antibody (antibody, human IgG1, kappa, V domains shown)
VH: EVQLLESGGGLVQPGGSLRLSCAASGFTISRYHMTWVRQAPGKGLEWIGHIYVNNDDTDYASSAKGRFTISRDNSKNTLYLQMNSLRAEDTATYFCARLDVGGGGAYIGDIWGQGTLVTVSS
VL: DIQMTQSPSSLSASVGDRVTITCQSSQSVYNNNDLAWYQQKPGKVPKLLIYYASTLASGVPSRFSGSGSGTDFTLTISSLQPEDVATYYCAGGYDTDGLDTFAFGGGTKVEIKR
notes: as for B7
B12: 226E12 humanized antibody (antibody, human IgG1, kappa, V domains shown)
VH: EVQLLESGGGLVQPGGSLRLSCAASGFSLSNYYMSWVRQAPGKGLEWIGAINADSDNTWYPSWVKGRFTISRDNSKNTLYLQMNSLRAEDTAVYYCARSVSNNFAEYNIWGQGTLVTVSS
VL: DIQMTQSPSSLSASVGDRVTITCQASQRIYSYLAWYQQKPGKVPKLLIYRASTLASGVPSRFSGSGSGTDFTLTISSLQPEDVATYYCQQGASMVDVENMFGGGTKVEIKR
notes: as for B7
B13: 330F11 humanized antibody (antibody, human IgG1, kappa, V domains shown)
VH: EVQLVESGGGLVQPGGSLRLSCAASGFSLNNYWMSWVRQAPGKGLEWIGTISSGAYTWFATWATGRFTISRDNSKNTLYLQMNSLRAEDTAVYYCARYSSTTDWTYFNIWGQGTLVTVSS
VL: DIQMTQSPSTLSASVGDRVTITCQASQSINNYLAWYQQKPGKAPKLLIYRASTLESGVPSRFSGSGSGTEFTLTISSLQPDDFATYYCQSYNGVGRTAFGGGTKVEIKR
notes: as for B7
B14: 323D10 chimeric rabbit/human IgG antibody (antibody, V domains shown)
VH: QSVEESGGRLVTPGTPLTLTCTVSGFSLSRNAMNWVRQAPGKGLEYIGYISTSGTTFYANWVKGRFTISKTSTTVDLKMTSLTTEDTATYFCARDYNYAMDIWGQGTLVTVSS
VL: AIDLTQTPASVEAAVGGTITINCQASESISSWLAWYQQKPGQRPKLLIYETSKLASGVPPRFSGSGSGTQFTLTISGVQCDDAATYYCQSYYRINNIGYDNAFGGGTEVEFKR
notes: as for B6
B15: 324E2 chimeric rabbit/human IgG antibody (antibody, V domains shown)
VH: QSVEESGGRLVTPGTPLTLTCTVSGFSLSNNAITWVRQAPGKGLEYIGIISSSGTTYYASWAKGRFTISKTSSTTVDLKMTSLTTEDTATYFCAGAFSVWGPGTLVTVSS
VL: AQVLTQTPSSVSAAVGGTVTINCQSSQSVNNNDLAWFQQKPGQPPKRLIYWASKLASGVPSRFKGSGSGTQFILTISDLECDDAATYYCAGGYSGNIYGFGGGTEVEVKR
notes: as for B6
B16: 324C6 chimeric rabbit/human IgG antibody (antibody, V domains shown)
VH: B5 VH
VL: DVVMTQTPASVEAAVGGTVTIKCQASQSIDSWLSWYQQKPGQPPKLLIYQASTLASGVSSRFKGSGSGTEFTLTISDLECADAATYYCQCAYGVSGTSSYLYTFGGGTEVEVKR
notes: as for B6

Molecular target: T1, recombinant human ROR1 extracellular domain protein (human, UniProt Q01973 30-406)
T1 construct: extracellular domain; Analyte in solution in the Octet assay; also called human ROR1 ECD
Assay: ELISA, direct coat; BCC supernatant

T1 sequence (Q01973 30-406): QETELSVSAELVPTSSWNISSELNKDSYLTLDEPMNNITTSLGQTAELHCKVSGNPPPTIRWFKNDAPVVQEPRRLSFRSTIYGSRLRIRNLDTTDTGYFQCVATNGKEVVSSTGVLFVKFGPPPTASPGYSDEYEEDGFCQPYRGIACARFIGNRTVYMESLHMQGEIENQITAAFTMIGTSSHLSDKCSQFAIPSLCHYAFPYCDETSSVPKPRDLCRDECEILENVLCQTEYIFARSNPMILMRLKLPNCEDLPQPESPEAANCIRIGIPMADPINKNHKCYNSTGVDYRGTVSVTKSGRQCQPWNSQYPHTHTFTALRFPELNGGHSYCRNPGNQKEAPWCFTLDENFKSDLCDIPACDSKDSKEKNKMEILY

Row | Binder | ELISA OD450
1 | B1 | 0.98 OD450
2 | B2 | 4 OD450
3 | B3 | 1.82 OD450
4 | B4 | 2.74 OD450

Molecular target: T2, Human ROR2 (human, UniProt Q01974)
Assay: ELISA, direct coat; BCC supernatant

T2 sequence (Q01974 34-403 limits assumed): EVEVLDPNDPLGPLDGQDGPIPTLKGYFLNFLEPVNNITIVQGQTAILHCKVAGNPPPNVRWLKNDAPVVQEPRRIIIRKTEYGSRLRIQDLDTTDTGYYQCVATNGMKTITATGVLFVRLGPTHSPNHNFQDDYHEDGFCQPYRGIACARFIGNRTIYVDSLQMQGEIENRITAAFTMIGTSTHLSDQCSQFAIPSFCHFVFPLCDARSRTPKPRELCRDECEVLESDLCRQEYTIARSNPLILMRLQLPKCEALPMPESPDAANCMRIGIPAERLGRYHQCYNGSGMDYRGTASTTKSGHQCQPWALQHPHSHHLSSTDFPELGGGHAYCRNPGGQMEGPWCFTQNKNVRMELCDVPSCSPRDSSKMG

Row | Binder | ELISA OD450
5 | B1 | 0.25 OD450
6 | B2 | 0.17 OD450
7 | B3 | 0.18 OD450
8 | B4 | 0.18 OD450
9 | B5 | 0.17 OD450

Molecular target: T3, human ROR1 'Frizzled-Kringle domain' (human, UniProt Q01973)
T3 construct: used plain or biotinylated
Assay: ELISA, direct coat; BCC supernatant

T3 sequence (Q01973 165-406 limits assumed): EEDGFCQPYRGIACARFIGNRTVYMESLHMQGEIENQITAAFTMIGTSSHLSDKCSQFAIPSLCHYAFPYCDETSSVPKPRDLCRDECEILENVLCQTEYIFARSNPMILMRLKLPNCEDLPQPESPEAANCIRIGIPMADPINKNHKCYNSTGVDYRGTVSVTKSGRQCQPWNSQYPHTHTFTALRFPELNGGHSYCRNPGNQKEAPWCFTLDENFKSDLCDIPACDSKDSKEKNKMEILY

Row | Binder | ELISA OD450
10 | B1 | 1.98 OD450
11 | B2 | 3.01 OD450
12 | B3 | 0.16 OD450
13 | B4 | 0.13 OD450

Molecular target: mouse ROR1 (serum titer ELISA antigen) (mouse, UniProt Q9Z139 30-403, limits assumed)
Assay: ELISA, direct coat; BCC supernatant

mouse ROR1 (serum titer ELISA antigen), sequence (Q9Z139 30-403 limits assumed): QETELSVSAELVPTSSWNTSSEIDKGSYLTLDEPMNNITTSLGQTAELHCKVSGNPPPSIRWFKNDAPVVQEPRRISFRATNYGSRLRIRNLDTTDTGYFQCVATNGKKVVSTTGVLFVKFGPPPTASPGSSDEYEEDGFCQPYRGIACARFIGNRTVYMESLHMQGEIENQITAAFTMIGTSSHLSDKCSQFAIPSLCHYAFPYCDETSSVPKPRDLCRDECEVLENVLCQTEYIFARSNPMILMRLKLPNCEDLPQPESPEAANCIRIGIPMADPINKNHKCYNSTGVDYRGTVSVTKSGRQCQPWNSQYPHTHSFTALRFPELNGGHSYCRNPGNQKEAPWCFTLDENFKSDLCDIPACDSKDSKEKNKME

Row | Binder | ELISA OD450 | binding result
14 | B1 | 4 OD450 | 
15 | B2 | 4 OD450 | 
16 | B3 | 0.2 OD450 | no binding
17 | B4 | 0.21 OD450 | no binding

Molecular target: T4, human ROR1 'Ig-Frizzled domain' (human, UniProt Q01973)
T4 construct: used plain or biotinylated
Assay: ELISA, direct coat; BCC supernatant

T4 sequence (Q01973 30-305 limits assumed): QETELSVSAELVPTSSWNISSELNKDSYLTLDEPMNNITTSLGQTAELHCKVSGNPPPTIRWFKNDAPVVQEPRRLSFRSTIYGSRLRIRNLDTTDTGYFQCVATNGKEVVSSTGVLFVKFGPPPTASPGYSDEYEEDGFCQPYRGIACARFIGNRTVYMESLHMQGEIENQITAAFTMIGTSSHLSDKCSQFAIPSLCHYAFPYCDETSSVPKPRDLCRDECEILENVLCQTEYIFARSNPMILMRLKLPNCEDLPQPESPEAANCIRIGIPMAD

Row | Binder | ELISA OD450
18 | B1 | 0.28 OD450
19 | B2 | 2.77 OD450
20 | B3 | 1.67 OD450
21 | B4 | 2.46 OD450

Molecular target: T1, recombinant human ROR1 extracellular …
Assay: Octet, mono-valent binding to human ROR1
From the text: The heavy and light chain expression plasmids generated from each well were transiently co-transfected to produce rabbit/human chimeric antibodies. Recombinant antibody supernatants were confirmed to contain anti-ROR1 antibodies using bio-layer interferometry analysis on a ForteBio Octet Red 96 instrument. Anti-human Fc biosensors (Pall ForteBio) were used to capture antibodies in the supernatants. Association to ROR1 was observed by real-time interferometry by placing the biosensors in wells containing recombinant human ROR1 extracellular domain protein. Dissociation was measured after transfer of the biosensors into wells containing 10× kinetics buffer (Pall ForteBio). The software provided by the manufacturer was used to analyze the interferometry data.

Row | Binder | koff
22 | B6 | 1.17e-08 s⁻¹

Molecular target: T1, recombinant human ROR1 extracellular …
Assay: Octet, monovalent binding to human ROR1

Row | Binder | koff
23 | B7 | 0.00424 s⁻¹
24 | B8 | 0.0403 s⁻¹
25 | B9 | 0.0061 s⁻¹
26 | B10 | 0.00238 s⁻¹
27 | B11 | 0.0007 s⁻¹
28 | B12 | 0.0415 s⁻¹
29 | B13 | 0.0297 s⁻¹

Molecular target: T5, Human ROR1-CHO cells (human, UniProt Q01973)
T5 construct: expressed on the surface of CHO cells; also called human ROR1 on CHO cells
Assay: FACS; BCC supernatant

T5 sequence (Q01973 30-937 limits assumed): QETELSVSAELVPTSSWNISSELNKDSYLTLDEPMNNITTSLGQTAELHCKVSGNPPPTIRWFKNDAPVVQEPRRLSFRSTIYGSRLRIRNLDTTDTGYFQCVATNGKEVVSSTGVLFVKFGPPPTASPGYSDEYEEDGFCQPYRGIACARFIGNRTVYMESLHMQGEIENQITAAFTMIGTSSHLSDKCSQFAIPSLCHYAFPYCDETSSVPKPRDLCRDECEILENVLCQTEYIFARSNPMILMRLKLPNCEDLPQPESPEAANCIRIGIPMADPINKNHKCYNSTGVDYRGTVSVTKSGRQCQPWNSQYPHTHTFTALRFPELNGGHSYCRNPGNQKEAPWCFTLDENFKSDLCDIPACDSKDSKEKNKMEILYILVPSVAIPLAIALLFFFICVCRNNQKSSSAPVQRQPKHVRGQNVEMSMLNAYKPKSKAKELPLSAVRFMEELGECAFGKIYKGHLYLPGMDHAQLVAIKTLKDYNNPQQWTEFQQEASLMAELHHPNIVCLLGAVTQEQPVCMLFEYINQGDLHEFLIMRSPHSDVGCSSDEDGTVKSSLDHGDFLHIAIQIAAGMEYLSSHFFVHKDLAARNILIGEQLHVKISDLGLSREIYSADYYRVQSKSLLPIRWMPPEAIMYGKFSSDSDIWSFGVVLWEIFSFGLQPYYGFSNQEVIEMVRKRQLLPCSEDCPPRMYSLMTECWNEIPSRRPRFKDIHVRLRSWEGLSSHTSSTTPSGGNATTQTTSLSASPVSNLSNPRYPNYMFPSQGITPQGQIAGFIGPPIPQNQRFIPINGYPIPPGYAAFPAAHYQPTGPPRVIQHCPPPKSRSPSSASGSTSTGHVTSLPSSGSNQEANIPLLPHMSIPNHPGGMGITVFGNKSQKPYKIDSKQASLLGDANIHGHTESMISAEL

Row | Binder | FACS MFI
30 | B1 | 5 MFI
31 | B3 | 90 MFI
32 | B4 | 190 MFI

Molecular target: T3, human ROR1 'Frizzled-Kringle domain'
Assay: ELISA, biotinylated antigen on avidin plate; BCC supernatant

Row | Binder | ELISA OD450
33 | B1 | 1.71 OD450
34 | B2 | 1.8 OD450
35 | B3 | 0.16 OD450
36 | B4 | 0.13 OD450

Molecular target: T4, human ROR1 'Ig-Frizzled domain'
Assay: as above

Row | Binder | ELISA OD450
37 | B1 | 0.15 OD450
38 | B2 | 0.22 OD450
39 | B3 | 1.78 OD450
40 | B4 | 2.67 OD450

Molecular target: T2, Human ROR2
Assay: Octet

Row | Binder | binding result
41 | B14 | no binding
42 | B15 | no binding
43 | B6 | no binding
44 | B16 | no binding

Molecular target: T3, human ROR1 'Frizzled-Kringle domain'
Assay: Octet

Row | Binder | binding result
45 | B14 | no binding
46 | B15 | no binding

Molecular target: T1, recombinant human ROR1 extracellular …
Assay: Octet, bi-valent binding to human ROR1

Row | Binder | koff
47 | B14 | 0.00961 s⁻¹
48 | B15 | 0.00572 s⁻¹
